We go through four molecules from paper PMC4015189 (Cell, 2014).

Data set [1] deals with the molecule itself. Kind of data set: light scattering.
Data set [2] deals with the molecule itself. In words: SEC.
For data set [3], the target named is microtubules. In words: single-molecule TIRF microscopy.

B1: NuMA NTD (domain or fragment, human, UniProt Q14980 1-400, looked up)
chain: MTLHATRGAALLSWVNSLHVADPVEAVLQLQDCSIFIKIIDRIHGTEEGQQILKQPVSERLDFVCSFLQKNRKHPSSPECLVSAQKVLEGSELELAKMTMLLLYHSTMSSKSPRDWEQFEYKIQAELAVILKFVLDHEDGLNLNEDLENFLQKAPVPSTCSSTFPEELSPPSHQAKREIRFLELQKVASSSSGNNFLSGSPASPMGDILQTPQFQMRRLKKQLADERSNRDELELELAENRKLLTEKDAQIAMMQQRIDRLALLNEKQAASPLEPKELEELRDKNESLTMRLHETLKQCQDLKTEKSQMDRKINQLSEENGDLSFKLREFASHLQQLQDALNELTEEHSKATQEWLEKQAQLEKELSAALQDKKCLEEKNEILQGKLSQLEEHLSQLQDN
Consider B1, for which, in data set [1], the “stoichiometry N” value came to 2.

B2: NuMA-bonsai-tail II-GFP (other, human, UniProt Q14980 1-400, looked up)
chain: MTLHATRGAALLSWVNSLHVADPVEAVLQLQDCSIFIKIIDRIHGTEEGQQILKQPVSERLDFVCSFLQKNRKHPSSPECLVSAQKVLEGSELELAKMTMLLLYHSTMSSKSPRDWEQFEYKIQAELAVILKFVLDHEDGLNLNEDLENFLQKAPVPSTCSSTFPEELSPPSHQAKREIRFLELQKVASSSSGNNFLSGSPASPMGDILQTPQFQMRRLKKQLADERSNRDELELELAENRKLLTEKDAQIAMMQQRIDRLALLNEKQAASPLEPKELEELRDKNESLTMRLHETLKQCQDLKTEKSQMDRKINQLSEENGDLSFKLREFASHLQQLQDALNELTEEHSKATQEWLEKQAQLEKELSAALQDKKCLEEKNEILQGKLSQLEEHLSQLQDNSALLSLPGYRPTTRSSARRSQAGVSSGAPPGRNSFYMGTCQDEPEQLDDWNRIAELQQRNRVCPPHLKTCYPLESRPSLSLGTITDEEMKTGDPQETLRRASMQPIQIAEGTGITTRQQRKRVSLEPHQGPGTPESKKATSCFPRPMTPRDRHEGRKQSTTEAQKKAAPASTKQADRRQSMAFSILNTPKKLGNSLLRRGASKKALSKASPNTRSGTRRSPRIA
With B2, the “stoichiometry N” value in data set [2] is 2. Moreover, the binding lifetime in data set [3] amounted to 3.6 ± 0.2 s.

B3: EB1-GFP (natural protein, human, UniProt Q15691 1-268, looked up)
chain: MAVNVYSTSVTSDNLSRHDMLAWINESLQLNLTKIEQLCSGAAYCQFMDMLFPGSIALKKVKFQAKLEHEYIQNFKILQAGFKRMGVDKIIPVDKLVKGKFQDNFEFVQWFKKFFDANYDGKDYDPVAARQGQETAVAPSLVAPALNKPKKPLTSSSAAPQRPISTQRTAAAPKAGPGVVRKNPGVGNGDDEAAELMQQVNVLKLTVEDLEKERDFYFGKLRNIELICQENEGENDPVLQRIVDILYATDEGFVIPDEGGPQEEQEEY
B3: the binding lifetime in data set [3] is 1.2 ± 0.2 s.

B4: NuMA-tail II-GFP (domain or fragment, human, UniProt Q14980 1868-2091, looked up)
chain: SALLSLPGYRPTTRSSARRSQAGVSSGAPPGRNSFYMGTCQDEPEQLDDWNRIAELQQRNRVCPPHLKTCYPLESRPSLSLGTITDEEMKTGDPQETLRRASMQPIQIAEGTGITTRQQRKRVSLEPHQGPGTPESKKATSCFPRPMTPRDRHEGRKQSTTEAQKKAAPASTKQADRRQSMAFSILNTPKKLGNSLLRRGASKKALSKASPNTRSGTRRSPRIA
In data set [3], B4 gave a binding lifetime of 2.8 ± 0.2 s.

As usually defined, the stoichiometry N is the number of molecules, sites or subunits per partner or assembly.
